In assay [1] the target is S1179D eNOS (bovine) (bovine) (UniProt P29473). The assay can be described thus: cell-based or functional assay.
The target in assay [2] is T1, wild type bovine endothelial nitric oxide synthase (eNOS) (bovine) (UniProt P29473).
T1 sequence (looked up): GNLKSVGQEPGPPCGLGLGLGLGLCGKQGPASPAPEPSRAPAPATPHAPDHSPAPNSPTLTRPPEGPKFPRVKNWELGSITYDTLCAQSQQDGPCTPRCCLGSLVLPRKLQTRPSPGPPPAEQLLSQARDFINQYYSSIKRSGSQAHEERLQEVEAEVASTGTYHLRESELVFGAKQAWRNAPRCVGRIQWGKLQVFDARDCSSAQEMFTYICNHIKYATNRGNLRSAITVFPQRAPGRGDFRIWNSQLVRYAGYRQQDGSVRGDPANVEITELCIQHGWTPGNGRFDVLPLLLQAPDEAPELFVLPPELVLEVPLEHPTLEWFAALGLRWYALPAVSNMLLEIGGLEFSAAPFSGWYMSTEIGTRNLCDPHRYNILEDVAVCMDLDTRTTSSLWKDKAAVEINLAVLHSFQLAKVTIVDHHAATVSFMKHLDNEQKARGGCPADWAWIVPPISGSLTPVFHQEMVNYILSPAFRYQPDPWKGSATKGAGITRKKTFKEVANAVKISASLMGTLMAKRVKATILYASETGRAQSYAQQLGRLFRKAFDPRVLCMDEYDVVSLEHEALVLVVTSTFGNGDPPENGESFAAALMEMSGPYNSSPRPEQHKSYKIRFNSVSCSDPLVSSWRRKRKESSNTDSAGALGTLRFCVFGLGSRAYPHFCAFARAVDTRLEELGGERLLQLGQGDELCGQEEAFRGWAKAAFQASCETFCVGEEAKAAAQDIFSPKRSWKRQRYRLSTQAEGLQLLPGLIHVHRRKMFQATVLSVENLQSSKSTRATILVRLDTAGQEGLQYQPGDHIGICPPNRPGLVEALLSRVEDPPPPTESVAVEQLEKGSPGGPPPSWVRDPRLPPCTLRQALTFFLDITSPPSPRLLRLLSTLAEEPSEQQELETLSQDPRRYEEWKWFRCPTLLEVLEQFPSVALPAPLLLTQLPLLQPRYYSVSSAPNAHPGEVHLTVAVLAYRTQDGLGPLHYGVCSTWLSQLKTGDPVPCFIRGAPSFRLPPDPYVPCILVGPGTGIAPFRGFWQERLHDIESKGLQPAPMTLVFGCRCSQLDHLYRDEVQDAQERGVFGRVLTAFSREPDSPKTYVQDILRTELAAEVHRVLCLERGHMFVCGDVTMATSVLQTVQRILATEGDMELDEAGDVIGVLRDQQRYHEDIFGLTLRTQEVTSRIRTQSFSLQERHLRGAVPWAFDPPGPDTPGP
The assay can be described thus: cell-based or functional assay.

Regarding calmodulin, in assay [1], the EC50 for CaM, NADPH-mediated cytochrome c reduction as a function of CaM concentration was 21 nM and the EC50 for CaM, NOS activity (L-Citrulline) as a function of CaM concentration came out at 7 nM. In addition, in assay [2], the EC50 for CaM, NADPH-mediated cytochrome c reduction as a function of CaM concentration turned out to be 13 nM and the EC50 for CaM, NOS activity (L-Citrulline) as a function of CaM concentration came out at 8 nM.
In assay [2], “constitutively active form of Akt (myr-Akt) (enzyme)” showed a cGMP accumulation (assayed in COS cells) (pmol cGMP/mg protein) of 11.6.
The substance “HA-tagged wild-type Akt (protein kinase B) (enzyme)” came in with a phosphorylation of eNOS in 32P-orthophosphate labeled COS cells in assay [2] of 2 fold.
In assay [2], “HA-tagged kinase inactive Akt (K179M) (enzyme)” returned a cGMP accumulation (assayed in COS cells) of 5.8 pmol cGMP.

Source of the values: patent US20040253685A1.
